T1: SHR-SCR complex (SHR 59-531 with SCR 275-653) (Arabidopsis thaliana, UniProt Q9SZF7 59-531; Q9M384 275-653)
T1 sequence (looked up) 1: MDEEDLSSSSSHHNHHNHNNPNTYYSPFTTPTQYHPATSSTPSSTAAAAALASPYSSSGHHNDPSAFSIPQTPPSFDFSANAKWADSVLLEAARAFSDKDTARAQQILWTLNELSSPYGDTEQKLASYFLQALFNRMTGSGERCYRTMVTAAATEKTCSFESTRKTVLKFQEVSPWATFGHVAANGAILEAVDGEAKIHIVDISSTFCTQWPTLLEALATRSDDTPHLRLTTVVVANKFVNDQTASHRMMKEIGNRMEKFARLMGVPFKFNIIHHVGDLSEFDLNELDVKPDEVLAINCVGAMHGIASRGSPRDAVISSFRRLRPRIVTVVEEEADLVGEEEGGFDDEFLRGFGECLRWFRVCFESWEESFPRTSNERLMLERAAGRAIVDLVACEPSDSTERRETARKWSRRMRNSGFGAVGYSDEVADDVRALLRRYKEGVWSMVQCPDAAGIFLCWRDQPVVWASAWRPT
T1 sequence (looked up) 2: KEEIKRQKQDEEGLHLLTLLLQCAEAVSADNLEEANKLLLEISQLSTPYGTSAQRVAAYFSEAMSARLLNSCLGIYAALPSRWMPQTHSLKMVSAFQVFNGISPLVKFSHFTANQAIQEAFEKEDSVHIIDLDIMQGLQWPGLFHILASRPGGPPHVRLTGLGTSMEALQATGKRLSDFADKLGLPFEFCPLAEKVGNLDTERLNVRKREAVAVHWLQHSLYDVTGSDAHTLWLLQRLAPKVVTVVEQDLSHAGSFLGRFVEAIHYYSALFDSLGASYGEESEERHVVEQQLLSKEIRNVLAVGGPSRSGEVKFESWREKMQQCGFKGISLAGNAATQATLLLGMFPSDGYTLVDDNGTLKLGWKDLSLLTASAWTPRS

B1: MGP/IDD3 ZF3-ZF4 (residues 143-221) (domain or fragment, Arabidopsis thaliana, UniProt Q9ZWA6 143-221, looked up)
chain: EKKWKCEKCAKRYAVQSDWKAHSKTCGTREYRCDCGTIFSRRDSFITHRAFCDALAEETARLNAASHLKSFAATAGSNL
B2: JKD/IDD10 ZF3-ZF4 (residues 155-224) (domain or fragment, Arabidopsis thaliana, UniProt Q700D2 155-224, looked up)
chain: GEKKWKCEKCSKKYAVQSDWKAHAKTCGTREYKCDCGTLFSRKDSFITHRAFCDALTEEGARMSSLSNNN
B3: AtSCL3 (natural protein, Arabidopsis, UniProt Q9LPR8 1-482, looked up)
chain: MVAMFQEDNGTSSVASSPLQVFSTMSLNRPTLLASSSPFHCLKDLKPEERGLYLIHLLLTCANHVASGSLQNANAALEQLSHLASPDGDTMQRIAAYFTEALANRILKSWPGLYKALNATQTRTNNVSEEIHVRRLFFEMFPILKVSYLLTNRAILEAMEGEKMVHVIDLDASEPAQWLALLQAFNSRPEGPPHLRITGVHHQKEVLEQMAHRLIEEAEKLDIPFQFNPVVSRLDCLNVEQLRVKTGEALAVSSVLQLHTFLASDDDLMRKNCALRFQNNPSGVDLQRVLMMSHGSAAEARENDMSNNNGYSPSGDSASSLPLPSSGRTDSFLNAIWGLSPKVMVVTEQDSDHNGSTLMERLLESLYTYAALFDCLETKVPRTSQDRIKVEKMLFGEEIKNIISCEGFERRERHEKLEKWSQRIDLAGFGNVPLSYYAMLQARRLLQGCGFDGYRIKEESGCAVICWQDRPLYSVSAWRCRK

Assays:
[1] = target: T1, SHR-SCR complex (SHR 59-531 with SCR …); experiment: ITC
AUC = target: the molecule itself; experiment: AUC

Binder | Kd [1] [µM] | dH [1] [kJ/mol] | stoichiometry N [1] | stoichiometry N (AUC)
B1 | 0.0355 ± 0.0112 | 10.84 ± 0.0837 | 0.81 ± 0.003 | 
B2 | 0.124 ± 0.0817 | -5.4 ± 0.126 | 0.6 ± 0.01 | 
B3 |  |  |  | 2

— paper PMC5639936 (Nature plants, 2017)
